Results taken from IntAct's records for PubMed 22345554.

B1: Bile acid receptor (Homo sapiens), Q96RI1 (parent)
chain: MVMQFQGLENPIQISPHCSCTPSGFFMEMMSMKPAKGVLTEQVAGPLGQNLEVEPYSQYSNVQFPQVQPQISSSSYYSNLGFYPQQPEEWYSPGIYELRRMPAETLYQGETEVAEMPVTKKPRMGASAGRIKGDELCVVCGDRASGYHYNALTCEGCKGFFRRSITKNAVYKCKNGGNCVMDMYMRRKCQECRLRKCKEMGMLAECMYTGLLTEIQCKSKRLRKNVKQHADQTVNEDSEGRDLRQVTSTTKSCREKTELTPDQQTLLHFIMDSYNKQRMPQEITNKILKEEFSAEENFLILTEMATNHVQVLVEFTKKLPGFQTLDHEDQIALLKGSAVEAMFLRSAEIFNKKLPSGHSDLLEERIRNSGISDEYITPMFSFYKSIGELKMTQEEYALLTAIVILSPDRQYIKDREAVEKLQEPLLDVLQKLCKIHQPENPQHFACLLGRLTELRTFNHHHAEMLMSWRVNDHKFTPLLCEIWDVQ
partner: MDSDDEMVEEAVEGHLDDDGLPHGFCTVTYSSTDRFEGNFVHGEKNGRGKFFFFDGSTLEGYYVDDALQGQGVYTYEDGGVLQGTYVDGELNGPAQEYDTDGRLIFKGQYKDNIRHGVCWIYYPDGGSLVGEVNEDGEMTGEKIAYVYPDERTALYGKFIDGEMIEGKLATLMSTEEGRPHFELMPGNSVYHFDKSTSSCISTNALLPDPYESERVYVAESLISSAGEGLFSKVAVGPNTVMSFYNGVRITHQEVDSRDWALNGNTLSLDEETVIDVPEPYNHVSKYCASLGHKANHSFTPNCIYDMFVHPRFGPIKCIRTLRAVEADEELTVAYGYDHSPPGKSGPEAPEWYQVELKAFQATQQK

Variants of: B1
Settings: with setd7_human SETD7, Q8WTS6

Variant	effect of a mutation on the interaction
K220R	decreasing interaction
